Values quoted from earlier work in PMC5457079.

Biological target: insulin (Homo sapiens) (UniProt P01308)

Kd: 10 µM
Substance: insulin (from UniProt P01308)
